B1: synthetic peptide MP-1 (18-amino acid CaM-binding domain of maize NPG1) (peptide)
peptide: VSKGWRLLALILSAQQRF
notes: Chemically synthesized, purity about 95%; also called the synthetic peptide; maize NPG1-synthetic peptide

Key:
bovine CaM (calmodulin) [1] = target: T1, bovine CaM (calmodulin) (bovine, UniProt P62157 2-149); assay: gel mobility shift, 4 M urea, CaCl2; 166 pmol CaM and 166 pmol peptide
From the text: (§1) To determine the stoichiometry of the CaM-peptide complex, we performed binding studies using the synthetic peptide (MP-1) and CaM in the presence of Ca²⁺ or EGTA. The binding of the synthetic peptide to CaM was detected by a gel mobility shift assay in polyacrylamide gels containing 4 M urea (FIG. 4A). […] In the presence of CaCl₂ the synthetic peptide retarded the migration of CaM in the gel indicating the formation of a complex between the peptide and CaM (FIG. 4A). […] At a molar ratio of 2:1 and 4:1 (peptide:CaM), the entire CaM migrated as a complex, and the band corresponding to the free CaM disappeared (FIG. 4A, lanes 3 and 4).
(§2) The interaction of CaM with synthetic peptide was also analyzed using electrophoretic mobility shift of CaM in the presence of a synthetic peptide. Each of the AtCaM isoforms and bovine CaM (166 pmol) were incubated with increasing concentrations of maize NPG1-synthetic peptide (166, 332, and 664 pmol) in the presence of 4 M urea, in a buffer containing 100 mM Tris-HCl, pH 7.5, and 1 mM CaCl₂ or 5 mM EGTA at room temperature for 1 h in a total volume of […]. Then, […] of sample buffer (0.375 M Tris-HCl, pH 6.8, 30% glycerol, and 0.023% bromphenol blue) was added to the samples and the mixture was electrophoresed in 12% polyacrylamide gels containing 4 M urea or 7.5% glycerol, 0.375 M Tris-HCl, pH 8.8, and either 1 mM CaCl₂ or 5 mM EGTA. The gels were run at a constant voltage of 25 V per gel in an electrode buffer (25 mM Tris-HCl, pH 8.3, 192 mM glycine, and either 1 mM CaCl₂ or 5 mM EGTA). The gels were stained with 0.25% Coomassie Blue R-250 in 7.5% acetic acid and 50% methanol for 1 h and then destained with 30% methanol and 7% acetic acid.

[2] = target: T2, Arabidopsis thaliana CaM isoform 2 (Arabidopsis thaliana, UniProt P0DH97 1-149); assay: as above
T2 construct: also called CaM2; CaM-2
From the text: as §1, §2

[3] = target: T3, Arabidopsis thaliana CaM isoform 4 (Arabidopsis thaliana, UniProt P0DH96 1-149); assay: as above
T3 construct: Used 35S-labeled, unlabeled or HRP-labeled, depending on the assay; also called CaM4; CaM-4
From the text: as §1, §2

[4] = target: T4, Arabidopsis thaliana CaM isoform 6 (Arabidopsis thaliana, UniProt Q03509 1-149); assay: as above
T4 construct: Used 35S-labeled, unlabeled or HRP-labeled, depending on the assay; also called CaM6; CaM-6
From the text: as §1, §2

bovine CaM (calmodulin) [5] = target: T1, bovine CaM (calmodulin); assay: tryptophan fluorescence spectroscopy, equimolar peptide and CaM, excitation 290 nm
Protocol: (§3) FIG. 4A is the analysis of CaM binding to a synthetic 18-amino acid peptide (MP-1, SEQ ID NO:2) by electrophoretic mobility shift polyacrylamide gels with 4 M urea. Lane 1 contained CaM alone (166 pmol), lanes 2-4 contained CaM (166 pmol) and 166, 332 and 664 pmol, respectively of synthetic MP-1. BCaM is bovine CaM, CaM2, CaM4, and CaM6 are the 2, 4, and 6 isoforms of Arabidopsis CaM. […] CaM and MP-1 (166 pmol) were incubated in 5 mM Tris, pH 7.3 and 0.5 mM CaCl₂. The excitation was measured at 290 nm and bandwidth for excitation and emission was 5 nm.
(§4) The tryptophan fluorescence spectra of free and CaM-bound synthetic peptide were recorded with a Hitachi-F-3010/4010 spectrofluorimeter as described in Reddy et al. (1996) supra. NPG1 peptide and AtCaMs (166 pmol each) were mixed in a […] reaction volume. The tryptophan residue in free and CaM-bound synthetic NPG1 peptide was excited at 290 nm and the emission wavelength values were recorded from 300 to 400 nm with a bandwidth of 5 nm in a 5-mm quartz cell at 25° C. Samples were incubated for 1 h at 25° C. prior to spectroscopic measurements. Corrections were made for the protein and solvent blanks.

[6] = target: T2, Arabidopsis thaliana CaM isoform 2; assay: as above
Protocol: as §3, §4

[7] = target: T3, Arabidopsis thaliana CaM isoform 4; assay: as above
Protocol: as §3, §4

[8] = target: T4, Arabidopsis thaliana CaM isoform 6; assay: as above
Protocol: as §3, §4

bovine CaM (calmodulin) [9] = target: T1, bovine CaM (calmodulin); assay: tryptophan fluorescence spectroscopy, equimolar peptide and CaM (166 pmol each), excitation 290 nm
Protocol: as §3, §4

[10] = target: T2, Arabidopsis thaliana CaM isoform 2; assay: as above
Protocol: as §3, §4

[11] = target: T3, Arabidopsis thaliana CaM isoform 4; assay: as above
Protocol: as §3, §4

[12] = target: T4, Arabidopsis thaliana CaM isoform 6; assay: as above
Protocol: as §3, §4

[13] = target: T2, Arabidopsis thaliana CaM isoform 2; assay: slot blot of peptide probed with 35S-labeled AtCaM isoform
[14] = target: T3, Arabidopsis thaliana CaM isoform 4; assay: as above
[15] = target: T4, Arabidopsis thaliana CaM isoform 6; assay: as above

Binder	percent of CaM shifted at a molar ratio of 1:1 (peptide:CaM) (bovine CaM (calmodulin) [1])	percent of CaM shifted at a molar ratio of 1:1 (peptide:CaM) [2]	percent of CaM shifted at a molar ratio of 1:1 (peptide:CaM) [3]	percent of CaM shifted at a molar ratio of 1:1 (peptide:CaM) [4]	wavelength of peak tryptophan emission of the peptide with CaM (free peptide about 350 nm) (bovine CaM (calmodulin) [5])	wavelength of peak tryptophan emission of the peptide with CaM (free peptide about 350 nm) [6]	wavelength of peak tryptophan emission of the peptide with CaM (free peptide about 350 nm) [7]	wavelength of peak tryptophan emission of the peptide with CaM (free peptide about 350 nm) [8]	tryptophan fluorescence intensity of the peptide with CaM (free peptide about 0.1) (bovine CaM (calmodulin) [9])	tryptophan fluorescence intensity of the peptide with CaM (free peptide about 0.1) [10]	tryptophan fluorescence intensity of the peptide with CaM (free peptide about 0.1) [11]	tryptophan fluorescence intensity of the peptide with CaM (free peptide about 0.1) [12]	binding result [13]	binding result [14]	binding result [15]
B1	~50%	~50%	~50%	~50%	~315 nm	~315 nm	~315 nm	~315 nm	~6.1	~8.4	~4.5	~6.1			
AKLDQGSLLRVKAKLKVAQSSPM [synthetic peptide MP-2 (different region of maize NPG1, negative control)]													no binding	no binding	no binding
ISSKEMVRLKKLVAYWKEQAGKK (Positive control peptide) [KCBP-peptide (CaM-binding peptide of kinesin-like calmodulin binding protein)]													binds	binds	binds

Source: US20030061635A1 (published 2003)
